Key:
[1] = target: BSG-SCd4d3+4bio (human; rat) (UniProt P35613); assay: SPR (BIAcore T100, 37° C.), kinetic analysis at 100 µl/min, global 1:1 fit
[2] = target: BSG-L bait (biotinylated ectodomain of the long, three domain isoform of BASIGIN) (human; rat) (UniProt P35613); assay: SPR (BIAcore T100, 37° C.), Rh5 injected over the immobilised three domain isoform of BSG
[3] = target: BSG-SCd4d3+4bio (human; rat) (UniProt P35613); assay: SPR (BIAcore T100, 37° C.), Rh5 injected over BSG-S captured on streptavidin, equilibrium, non-linear curve fit
[4] = target: human BSG on erythrocytes (human) (UniProt P35613); assay: cell-based or functional assay
Chain of human BSG on erythrocytes (human) (P35613 22-385): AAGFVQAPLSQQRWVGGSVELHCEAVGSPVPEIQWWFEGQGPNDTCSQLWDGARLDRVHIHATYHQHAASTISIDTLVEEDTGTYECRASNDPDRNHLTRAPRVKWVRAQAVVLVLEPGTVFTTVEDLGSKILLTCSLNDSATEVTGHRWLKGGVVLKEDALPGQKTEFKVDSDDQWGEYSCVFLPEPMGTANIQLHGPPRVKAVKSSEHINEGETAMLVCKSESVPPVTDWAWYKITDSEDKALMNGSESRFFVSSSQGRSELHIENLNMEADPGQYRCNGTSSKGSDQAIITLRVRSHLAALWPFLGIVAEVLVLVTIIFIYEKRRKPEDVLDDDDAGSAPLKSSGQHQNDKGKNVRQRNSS

[5] = target: P. falciparum invasion ligand Rh5 (of the parasites in the invasion assays) (Plasmodium falciparum); assay: cell-based or functional assay
[6] = target: T1, biotinylated CD4 domains 3+4 alone (negative control) (rat, UniProt P05540 207-394, enzymatically biotinylated on the C-terminal biotinylation sequence); assay: flow cytometry, protein-coated fluorescent microbeads on human erythrocytes
T1 construct: domain: domains 3 and 4; Immobilised on streptavidin-coated Nile Red fluorescent microbeads in the assay; also called Cd4d3+4; CD4-coated microbeads
T1 sequence: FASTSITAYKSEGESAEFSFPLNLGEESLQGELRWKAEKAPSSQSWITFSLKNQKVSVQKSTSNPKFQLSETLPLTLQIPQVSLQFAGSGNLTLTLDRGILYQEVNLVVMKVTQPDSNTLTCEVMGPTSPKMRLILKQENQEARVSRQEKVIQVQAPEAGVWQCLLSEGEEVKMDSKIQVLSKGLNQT

PfRh5Cd4d3+4-6H (from UniProt P05540 207-394) (ligand)
interaction half-life [1]: 2.9 s
koff [1]: 0.24 s⁻¹
kon [1]: 225000 M⁻¹ s⁻¹
Kd [2]: 710 nM
koff [2]: 0.144 s⁻¹
Kd [3]: 1140 nM

MEM-M6/6 (antibody)
concentration that prevented all detectable invasion, 3D7 strain, microscopy [4]: > 10 µg/mL

BSG-S-Cd4d3+4-COMP-His (from UniProt P35613 138-325; P05540 207-394; P35444 28-72) (receptor)
inhibition of erythrocyte invasion, Dd2 P. falciparum strain, IC50 [5]: 1000 nM

B1: GLYCOPHORIN A (GYPA) on human erythrocytes (receptor)
chain: LSTTEVAMHTSTSSSVTKSYISSQTNDTHKRDTYAATPRAHEVSEISVRTVYPPEEETGERVQLAHHFSEPEITLIIFGVMAGVIGTILLISYGIRRLIKKSPSDVKPLPSPDTDVPLSSVEIENPETSDQ
modifications: sialylated (binding was lost after neuraminidase treatment of the cells)
notes: whole, on cells; also called native GYPA
binding result [6]: no binding

From patent US20140093540A1 (published 2014)
